Results: publication PMC4436832 (Molecular Biology of the Cell, 2015)

How the values were obtained:
[1] = target: Acanthamoeba castellani actin (filaments) (Acanthamoeba castellani)
[2] = target: Taxol-stabilized microtubules (tubulin, Cytoskeleton T240) (UniProt P02550); assay: co-sedimentation
SEC = target: the molecule itself; assay: SEC

Binder	koff [1] [s⁻¹]	Kd [2] [nM]	stoichiometry N (α/β dimers per binding site) [2]	stoichiometry N (SEC)
Wild-type CapuCT (C-terminal Capu construct, residues 467–1059) (domain or fragment) VSDNESAKEDGEKPHAVAPPPPPPPPPLHAFVAPPPPPPPPPPPPPPLANYGAPPPPPPPPPGSGSAPPPPPPAPIEGGGGIPPPPPPMSASPSKTTISPAPLPDPAEGNWFHRTNTMRKSAVNPPKPMRPLYWTRIVTSAPPAPRPPSVANSTDSTENSGSSPDEPPAANGADAPPTAPPATKEIWTEIEETPLDNIDEFTELFSRQAIAPVSKPKELKVKRAKSIKVLDPERSRNVGIIWRSLHVPSSEIEHAIYHIDTSVVSLEALQHMSNIQATEDELQRIKEAAGGDIPLDHPEQFLLDISLISMASERISCIVFQAEFEESVTLLFRKLETVSQLSQQLIESEDLKLVFSIILTLGNYMNGGNRQRGQADGFNLDILGKLKDVKSKESHTTLLHFIVRTYIAQRRKEGVHPLEIRLPIPEPADVERAAQMDFEEVQQQIFDLNKKFLGCKRTTAKVLAASRPEIMEPFKSKMEEFVEGADKSMAKLHQSLDECRDLFLETMRFYHFSPKACTLTLAQCTPDQFFEYWTNFTNDFKDIWKKEITSLLNELMKKSKQAQIESRRNVSTKVEKSGRISLKERMLMRRSKN	0.000245	150	1.42	2
CapuCT-I751T (domain or fragment) VSDNESAKEDGEKPHAVAPPPPPPPPPLHAFVAPPPPPPPPPPPPPPLANYGAPPPPPPPPPGSGSAPPPPPPAPIEGGGGIPPPPPPMSASPSKTTISPAPLPDPAEGNWFHRTNTMRKSAVNPPKPMRPLYWTRIVTSAPPAPRPPSVANSTDSTENSGSSPDEPPAANGADAPPTAPPATKEIWTEIEETPLDNIDEFTELFSRQAIAPVSKPKELKVKRAKSIKVLDPERSRNVGIIWRSLHVPSSEIEHAIYHIDTSVVSLEALQHMSNIQATEDELQRTKEAAGGDIPLDHPEQFLLDISLISMASERISCIVFQAEFEESVTLLFRKLETVSQLSQQLIESEDLKLVFSIILTLGNYMNGGNRQRGQADGFNLDILGKLKDVKSKESHTTLLHFIVRTYIAQRRKEGVHPLEIRLPIPEPADVERAAQMDFEEVQQQIFDLNKKFLGCKRTTAKVLAASRPEIMEPFKSKMEEFVEGADKSMAKLHQSLDECRDLFLETMRFYHFSPKACTLTLAQCTPDQFFEYWTNFTNDFKDIWKKEITSLLNELMKKSKQAQIESRRNVSTKVEKSGRISLKERMLMRRSKN	0.00277			
CapuCT-D662N (domain or fragment) VSDNESAKEDGEKPHAVAPPPPPPPPPLHAFVAPPPPPPPPPPPPPPLANYGAPPPPPPPPPGSGSAPPPPPPAPIEGGGGIPPPPPPMSASPSKTTISPAPLPDPAEGNWFHRTNTMRKSAVNPPKPMRPLYWTRIVTSAPPAPRPPSVANSTDSTENSGSSPDEPPAANGADAPPTAPPATKEIWTEIEETPLNNIDEFTELFSRQAIAPVSKPKELKVKRAKSIKVLDPERSRNVGIIWRSLHVPSSEIEHAIYHIDTSVVSLEALQHMSNIQATEDELQRIKEAAGGDIPLDHPEQFLLDISLISMASERISCIVFQAEFEESVTLLFRKLETVSQLSQQLIESEDLKLVFSIILTLGNYMNGGNRQRGQADGFNLDILGKLKDVKSKESHTTLLHFIVRTYIAQRRKEGVHPLEIRLPIPEPADVERAAQMDFEEVQQQIFDLNKKFLGCKRTTAKVLAASRPEIMEPFKSKMEEFVEGADKSMAKLHQSLDECRDLFLETMRFYHFSPKACTLTLAQCTPDQFFEYWTNFTNDFKDIWKKEITSLLNELMKKSKQAQIESRRNVSTKVEKSGRISLKERMLMRRSKN	0.000297	250	0.87	2
CapuCT-P597L (domain or fragment) VSDNESAKEDGEKPHAVAPPPPPPPPPLHAFVAPPPPPPPPPPPPPPLANYGAPPPPPPPPPGSGSAPPPPPPAPIEGGGGIPPPPPPMSASPSKTTISPAPLPDPAEGNWFHRTNTMRKSAVNPPKPMRLLYWTRIVTSAPPAPRPPSVANSTDSTENSGSSPDEPPAANGADAPPTAPPATKEIWTEIEETPLDNIDEFTELFSRQAIAPVSKPKELKVKRAKSIKVLDPERSRNVGIIWRSLHVPSSEIEHAIYHIDTSVVSLEALQHMSNIQATEDELQRIKEAAGGDIPLDHPEQFLLDISLISMASERISCIVFQAEFEESVTLLFRKLETVSQLSQQLIESEDLKLVFSIILTLGNYMNGGNRQRGQADGFNLDILGKLKDVKSKESHTTLLHFIVRTYIAQRRKEGVHPLEIRLPIPEPADVERAAQMDFEEVQQQIFDLNKKFLGCKRTTAKVLAASRPEIMEPFKSKMEEFVEGADKSMAKLHQSLDECRDLFLETMRFYHFSPKACTLTLAQCTPDQFFEYWTNFTNDFKDIWKKEITSLLNELMKKSKQAQIESRRNVSTKVEKSGRISLKERMLMRRSKN	0.0021	300	0.88	2

Now from value to binder, other results behind:

koff [1] [s⁻¹]	Kd [2] [nM]	stoichiometry N (α/β dimers per binding site) [2]	Binder	stoichiometry N (SEC)
0.000852	250	0.88	CapuCT-K586M (domain or fragment) VSDNESAKEDGEKPHAVAPPPPPPPPPLHAFVAPPPPPPPPPPPPPPLANYGAPPPPPPPPPGSGSAPPPPPPAPIEGGGGIPPPPPPMSASPSKTTISPAPLPDPAEGNWFHRTNTMRMSAVNPPKPMRPLYWTRIVTSAPPAPRPPSVANSTDSTENSGSSPDEPPAANGADAPPTAPPATKEIWTEIEETPLDNIDEFTELFSRQAIAPVSKPKELKVKRAKSIKVLDPERSRNVGIIWRSLHVPSSEIEHAIYHIDTSVVSLEALQHMSNIQATEDELQRIKEAAGGDIPLDHPEQFLLDISLISMASERISCIVFQAEFEESVTLLFRKLETVSQLSQQLIESEDLKLVFSIILTLGNYMNGGNRQRGQADGFNLDILGKLKDVKSKESHTTLLHFIVRTYIAQRRKEGVHPLEIRLPIPEPADVERAAQMDFEEVQQQIFDLNKKFLGCKRTTAKVLAASRPEIMEPFKSKMEEFVEGADKSMAKLHQSLDECRDLFLETMRFYHFSPKACTLTLAQCTPDQFFEYWTNFTNDFKDIWKKEITSLLNELMKKSKQAQIESRRNVSTKVEKSGRISLKERMLMRRSKN	2
0.000592	100	1.48	CapuCT-D854N (domain or fragment) VSDNESAKEDGEKPHAVAPPPPPPPPPLHAFVAPPPPPPPPPPPPPPLANYGAPPPPPPPPPGSGSAPPPPPPAPIEGGGGIPPPPPPMSASPSKTTISPAPLPDPAEGNWFHRTNTMRKSAVNPPKPMRPLYWTRIVTSAPPAPRPPSVANSTDSTENSGSSPDEPPAANGADAPPTAPPATKEIWTEIEETPLDNIDEFTELFSRQAIAPVSKPKELKVKRAKSIKVLDPERSRNVGIIWRSLHVPSSEIEHAIYHIDTSVVSLEALQHMSNIQATEDELQRIKEAAGGDIPLDHPEQFLLDISLISMASERISCIVFQAEFEESVTLLFRKLETVSQLSQQLIESEDLKLVFSIILTLGNYMNGGNRQRGQADGFNLDILGKLKNVKSKESHTTLLHFIVRTYIAQRRKEGVHPLEIRLPIPEPADVERAAQMDFEEVQQQIFDLNKKFLGCKRTTAKVLAASRPEIMEPFKSKMEEFVEGADKSMAKLHQSLDECRDLFLETMRFYHFSPKACTLTLAQCTPDQFFEYWTNFTNDFKDIWKKEITSLLNELMKKSKQAQIESRRNVSTKVEKSGRISLKERMLMRRSKN	2
0.0013	180	0.95	CapuCT-H977Y (domain or fragment) VSDNESAKEDGEKPHAVAPPPPPPPPPLHAFVAPPPPPPPPPPPPPPLANYGAPPPPPPPPPGSGSAPPPPPPAPIEGGGGIPPPPPPMSASPSKTTISPAPLPDPAEGNWFHRTNTMRKSAVNPPKPMRPLYWTRIVTSAPPAPRPPSVANSTDSTENSGSSPDEPPAANGADAPPTAPPATKEIWTEIEETPLDNIDEFTELFSRQAIAPVSKPKELKVKRAKSIKVLDPERSRNVGIIWRSLHVPSSEIEHAIYHIDTSVVSLEALQHMSNIQATEDELQRIKEAAGGDIPLDHPEQFLLDISLISMASERISCIVFQAEFEESVTLLFRKLETVSQLSQQLIESEDLKLVFSIILTLGNYMNGGNRQRGQADGFNLDILGKLKDVKSKESHTTLLHFIVRTYIAQRRKEGVHPLEIRLPIPEPADVERAAQMDFEEVQQQIFDLNKKFLGCKRTTAKVLAASRPEIMEPFKSKMEEFVEGADKSMAKLHQSLDECRDLFLETMRFYYFSPKACTLTLAQCTPDQFFEYWTNFTNDFKDIWKKEITSLLNELMKKSKQAQIESRRNVSTKVEKSGRISLKERMLMRRSKN	2
